What was measured:
Format in all cases: cell-based
[1] = tested on: HL60 cells; experiment: JC-1 mitochondrial membrane potential staining, fluorescence microscopy
Excerpt: FIG. 14A is a graphical representation of green/red fluorescence intensity ratio data measured for treatment of HL60/VDR cells (a vinctrisin resistant cell line) as indicated for the x-axis. * indicates statistical significance.
Disruption of the mitochondrial membrane potential (Δψm) is an early event associated with apoptosis and may be one of several factors responsible for cytochrome c release (17, 18). Using JC-1 mitochondrial potential sensor (Molecular Probes, Inc) staining and fluorescence microscopy, we analyzed the Δψm in VCR (vincristin) treated HL60 cells. In healthy cells, the dye accumulates and aggregates in mitochondria, where it fluoresces bright red. In apoptotic cells, however, it cannot enter mitochondria if the Δψm is altered and fluoresces bright green as a cytoplasmic monomer. Therefore, mitochondria depolarization is indicated by a decrease of the red/green fluorescence intensity ratio.

[2] = tested on: HL60/VCR (Vincristin resistant) cells; experiment: MTT viability assay; conditions: 48 h
Method: Viability assays by conventional MTT assay protocol (Promega) were performed at 48 h after the beginning of the experiment.

[3] = tested on: HeLa cells; experiment: Lactic acid production in culture medium; conditions: treated for 3 days vs not treated
Method: Mitochondria are well known for their essential role in cell respiration and apoptosis. Cancer cells are known to have altered mitochondrial respiration, where pyruvate is catabolized in the lactic acid fermentation pathway instead of being used in the Krebbs cycle in the mitochondria, which produces energy far more efficiently. […] Culture medium was tested for lactic acid levels.

[4] = tested on: UoCB1 cells; experiment: Matrigel invasion assay; conditions: 20 μg of P1-TAT for 48 h, treatment versus no treatment
Excerpt: To perform the Matrigel invasion assay, cells were deposited on top of a matrigel well and chemoattractant (fetal bovine serum) solutions were positioned below the matrigel matrix. Only cells with an invasive potential will “travel” toward the chemoattractant solutions through the matrigel.

[5] = tested on: CD24 protein expression; experiment: CD24 protein expression by immunofluorescence; conditions: OM9;22 ALL cell line, 48 hours of treatment
Excerpt: (§1) The same results were obtained using the OVCAR3 ovarian cancer cell line (not shown).

[6] = tested on: H520 cells; experiment: Wound healing assay, lung cancer cells; conditions: treated vs not treated, 5 days
Method: FIG. 12A is a photographic representation of a wound healing assay performed on lung cancer cell lines. The H520 cells were treated (or not treated) with the FLJP1-TAT and motility of cells was monitored through a light microscope to analyze closing of the created gap.
(§2) This was performed by growing the cells to confluence and forming a “wound” by scoring the culture with a pipette tip. The cells were then treated with P1-TAT and assessed for their ability to close the gap between the two artificially created cell populations.

[7] = tested on: MCF7; experiment: Wound healing assay, breast cancer cells; conditions: treated vs not treated
Method: FIG. 12B is a wound healing assay as depicted in FIG. 12A performed on breast cancer cells.
as §2

[8] = tested on: CD24 expression; experiment: CD24 expression by RT-PCR in leukemia cell lines incubated with P1-TAT
Method: Reverse transcription was done in 20 μl containing a minimum of 1.25 μg of total RNA, 1 μl of 10 mM of deoxynucleotide triphosphate (NEB, Ipswitch, Mass.), 1 μl of 0.5 μg/μl oligo (dT) 18 (IDT, Coralville, Iowa), 1 μl of 40 U/μl ribonuclease inhibitor (Fermentas, Hanover, Md.), 2 μl of 10×reaction buffer (NEB), and 0.25 μl of 200 U/μl MMLV reverse transcriptase (NEB). After incubation with 1 μl of 5U μl RNase H (NEB) for 20 minutes, multiplex PCR reaction was carried out, allowing for simultaneous detection of CD24 and FLJ13639 expression levels. The primers are: CD 24 (resulting in an amplification product of 300 pb) forward: 5′[…]3′ (SEQ ID NO:12), reverse: 5′[…]3′ (SEQ ID NO:13). The primers for FLJ13639 P1 (resulting in an amplification product of 233 pb) are the same as those described in Example 1. The reactions were of an initial denaturation at 95° C. for 10 minutes, followed by 35 cycles: denaturation, 50 seconds at 95° C., annealing 50 seconds at 54° C. and extension 60 seconds at 75° C. Actin amplification was performed as an internal control, according to the following protocol: 15 seconds at 95° C., 30 seconds at 60° C. and 60 seconds at 75° C.
After 48 hours of incubation, cells were harvested, RNA was extracted and cDNA was used for CD24 expression assessment by RT-PCR.
as §1

Molecule	green/red fluorescence ratio ([1]; 0.1 ug of VCR alone)	green/red fluorescence ratio ([1]; 1 ug of VCR alone, p<0.01)	cytotoxicity at 1 µM ([2]; HL60/VCR, Vincristin 1 μM, read-out: reduction of cell viability)	effect on cell viability ([2]; Vincristin 0.1 μM)	level of lactic acid in culture medium [3]	decrease of invasion potential [4]	CD24 protein expression [5]	motility / closing of the gap [6]	motility / closing of the gap ([6]; listed as FLJ13639P1-TAT)	motility / closing of the gap [7]	CD24 expression ([8]; OM9:22, ALL-1, K562, 207 cell lines, 20 μg of P1-TAT (data not shown))	CD24 expression levels ([8]; UoCB1 cell line, increasing amount of P1-TAT, 48 hours, RT-PCR)	CD24 levels, time-course ([8]; UoCB1 cells, 20 μg of P1-TAT, six hours after incubation)
CC[C@]1(O)C[C@H]2CN(CCc3c([nH]c4ccccc34)[C@@](C(=O)OC)(c3cc4c(cc3OC)N(C=O)[C@H]3[C@@](O)(C(=O)OC)[C@H](OC(C)=O)[C@]5(CC)C=CCN6CC[C@]43[C@@H]65)C2)C1 [Vincristin, vincristin]	low green/red fluorescence ratio	significant increase	90%	almost no effect									
P1-TAT: recombinant FLJ13639/P1 protein in frame with HIV TAT protein transduction domain and 6×Histidine tag; amino acid sequence SEQ ID NO:5 (protein) MRGSHHHHHHGMASMTGGQQMGRDLYDDDDKDRWGSKLGYGRKKRRQRRRGGSTMSGYPYDVPDYAGSMAGTGLESLYRSVVWFAKGLREYTKSGYESACKDFVPHDLEVQIPGRVFLVTGGNSGIGKATALEIAKRGGTVHLVCRDQAPAEDARGEIIRESGNQNIFLHIVDLSDPKQIWKFVENFKQEHKLHVLINNAGCMVNKRELTEDGLEKNFAANTLGVYILTTGLIPVLEKEHDPRVITVSSGGMLVQKLNTNDLQSERTPFDGTMVYAQNKRQQVVLTERWAQGHPAIHFSSMHPGWADTPGVRQAMPGFHARFGDRLRSEAQGADTMLWLALSSAAAAQPSGRFFQDRKPVSTHLPLATASSSPAEEEKLIEILEQLAQTFK					significantly lower level	2.4 fold	down-regulated	significantly reduced the motility	inhibited filling of the gap	significantly reduced the motility	marked CD24 down-regulation	inversely proportional	significantly downregulated

Reference: patent US20090042782A1, “Diagnostic and therapeutic strategies for conditions associated with the FLJ13639 gene” (priority 2005, published 2009)
